Results: patent publication US20260167712A1, “INHIBITORY ANTIBODIES AGAINST GLUT1” (ICOSAGEN CELL FACTORY OÜ, priority 2022, published 2026)
“Also recorded” adds a separate entry of the source.

Legend:
[1] = test system: MIAPACA2 pancreatic cancer cell line; experiment: Cell proliferation inhibition assay (Incucyte), MIAPACA2; assay type: cell-based; conditions: co-treatment with IACS-010759, compared to single agents, FIG. 11C
Method: (§1) Incucyte S3 Live cell analysis instrument and Cell-by-Cell analysis software module (Sartorius) were used to evaluate the effect of anti-SLC2A1 antibodies on cancer cell proliferation label-free (FIGS. 5-11). MCF7, PC3 or PANC1 or MIAPACA2 cells were plated on flat bottom tissue culture 96-well plate in […] medium (Ximbio) supplemented with 2.5% FBS. Cells were incubated overnight and 0.02 nM to 13 μM anti-SLC2A1 antibodies, anti-HEL isotype control, PBS or BAY-876 were added to the cells alone or in combination with metformin (CaymanChem), phenformin (Sigma Aldrich) or IACS-010759 (CaymanChem). Cell confluence or object count was measured for 24 to 96 hours with Incucyte S3 and normalized to timepoint 0 h or 4h. anti-SLC2A1 antibodies inhibit cancer cell proliferation alone and especially in combination with complex-I inhibitors metformin, phenformin and IACS-010759. Exemplary antibodies 1G2 #9, 2A2 #12, 2E5 #22, 5G5 #30, 6F12 #33, 7C3 #39 and R14 #54 were used in proliferation assays.

[2] = test system: MiaPaca2 xenograft tumors; experiment: Antitumor efficacy against MiaPaca2 xenograft tumors; assay type: in vivo, mice; conditions: 6F12 #33 200 ug per mouse IP every 72 h plus daily Phenformin 20 mg/kg IP, versus phenformin alone, FIG. 12A
Description: (§2) Hsd:Athymic Nude-Foxn1^nu mice (10 per group) were inoculated with 5e6 MiaPaca2 cells/mouse subcutaneously.

[3] = Body weight in MiaPaca2 xenograft study; assay type: in vivo, mice; conditions: during treatments, FIG. 12B
Description: as §2

[4] = test system: PANC1 pancreatic cancer cell line; experiment: Cell proliferation inhibition assay (Incucyte), PANC1; assay type: cell-based; conditions: co-treatment with IACS-010759, compared to single agents, FIG. 11B
Method: as §1

[5] = test system: PC3 prostate cancer cell line; experiment: Cell proliferation inhibition assay (Incucyte), PC3; assay type: cell-based; conditions: co-treatment with IACS-010759, compared to single agents, FIG. 11A
Method: as §1

B1: 6F12 #33 (antibody, V domains shown)
VH: AVTLDESGGGLQTPGGALSLVCKASGFTFSDHAIFWVRQAPDKGLEFVAAISSGTGSWTAYATVVKGRATISRDNGQSTVRLQLNNLRAADTATYYCAKGAGSACCYAGSIDAWGHGTEVIVSS
VL: ALTQPSSVSANPGETVKITCSGGSSSSYYGWYQQKSPGSAPVTLIYYNDKRPSDIPSRFSGSKSGSTATLTITGVQVEDEAVYYCGTGDGSFAIFGAGTTLTVL
For B1, the “MIAPACA2 cell growth in combination with IACS-010759” value [1] was “dramatic growth reduction”, the “tumor growth, cotreatment with phenformin” value [2] was “statistically significant tumor growth inhibition” and the body weight [3] was “No changes; also recorded: remained unchanged”. The “PANC1 cell growth in combination with IACS-010759” value [4] was “dramatic growth reduction”.

B2: 2E5 #22 (antibody, V domains shown)
VH: AVTLDESGGGLQTPGGALSLVCKASGFTFSTKGMGWVRQTPGKGLEWVAGISSMRRYTYYAPAVKGRATISRDNGQSTVRLQLSSLRAEDSGTYYCARDATYCSWTTSTCGWSGGTIDAWGHGTEVIVSS
VL: ALTQPSSVSANLGGTVKITCSGGSGNYGWYQQKSPGSVPVTVIYSNDKRPSDIPSRFSGSGSGSTATLTITGVQVEDEAVYFCGSRDSSYVGLFGAGTTLTVL
With B2 the “PC3 cell growth in combination with IACS-010759” value [5] was “strong synergistic growth inhibition”.
